Test [1] concerns the target T1, recombinant human PS (rhPS) (human, UniProt P07225 42-676).
T1 construct: Purified recombinant human protein S; also called Protein S; recombinant human protein S
T1 sequence (looked up): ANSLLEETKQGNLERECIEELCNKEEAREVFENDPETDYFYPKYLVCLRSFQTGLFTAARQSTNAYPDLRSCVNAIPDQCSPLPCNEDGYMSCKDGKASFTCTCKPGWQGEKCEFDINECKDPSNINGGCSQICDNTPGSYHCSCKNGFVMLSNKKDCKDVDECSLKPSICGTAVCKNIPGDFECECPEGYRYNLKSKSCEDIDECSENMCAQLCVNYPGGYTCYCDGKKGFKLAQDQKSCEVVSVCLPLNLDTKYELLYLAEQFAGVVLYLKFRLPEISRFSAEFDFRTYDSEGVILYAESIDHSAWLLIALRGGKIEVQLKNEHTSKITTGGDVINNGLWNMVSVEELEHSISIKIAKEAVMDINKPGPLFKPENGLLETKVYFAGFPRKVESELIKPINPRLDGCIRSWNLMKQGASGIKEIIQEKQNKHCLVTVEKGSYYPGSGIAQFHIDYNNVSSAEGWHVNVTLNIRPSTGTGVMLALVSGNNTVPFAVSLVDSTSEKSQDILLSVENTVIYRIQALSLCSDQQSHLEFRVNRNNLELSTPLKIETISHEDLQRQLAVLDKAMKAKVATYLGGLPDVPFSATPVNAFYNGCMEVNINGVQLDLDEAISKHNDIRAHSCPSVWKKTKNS
Put plainly: ELISA on rhPS immobilized at 0.6, 1.25, 2.5 and 5 µg/mL, method of Beatty et al. 1987. How it is done:
FIG. 6: Comparison of PS003 and PS003biv binding to immobilized PS in direct ELISA. rhPS (60 μL at 2.5 μg/mL in TBS containing 5 mM CaCl₂)) was immobilized onto ELISA wells, and the binding of PS003 and PS003biv (0-200 nM) was analyzed with a peroxidase-conjugated polyclonal anti-His6 tag antibody. Three individual experiments were done in simplicate, and the results are expressed as percentage of maximal binding for each nanobody. […] To further compare the ability of PS003 and PS003biv to bind to PS, the affinity of PS003 and PS003biv for rhPS was estimated as described (Beatty et al. J Immunol Methods 1987), by obtaining similar binding curves on rhPS immobilized at increasing concentrations (0.6, 1.25, 2.5 and 5 μg/mL in TBS containing 5 mM CaCl₂) in three individual experiments done in simplicate. For each nanobody, the dissociation constant (KD) was determined by using a formula based on the Law of Mass Action.
To further compare the ability of PS003 and PS003biv to bind to PS, the affinity of PS003 and PS003biv for rhPS was estimated as described (Beatty et al. J Immunol Methods 1987), by obtaining binding curves on rhPS immobilized at increasing concentrations (0.6, 1.25, 2.5 and 5 μg/mL in TBS containing 5 mM CaCl₂) in three individual experiments done in simplicate. […]
In general terms: In an ELISA, binding on a coated surface is turned into a signal by an enzyme label.

Test [2] has as its target T1, recombinant human PS (rhPS). Put plainly: cell-based or functional assay.
For test [3], the target named is T2, recombinant human Gas6 (rhGas6) (human, UniProt Q14393 49-678, limits assumed).
T2 sequence (looked up): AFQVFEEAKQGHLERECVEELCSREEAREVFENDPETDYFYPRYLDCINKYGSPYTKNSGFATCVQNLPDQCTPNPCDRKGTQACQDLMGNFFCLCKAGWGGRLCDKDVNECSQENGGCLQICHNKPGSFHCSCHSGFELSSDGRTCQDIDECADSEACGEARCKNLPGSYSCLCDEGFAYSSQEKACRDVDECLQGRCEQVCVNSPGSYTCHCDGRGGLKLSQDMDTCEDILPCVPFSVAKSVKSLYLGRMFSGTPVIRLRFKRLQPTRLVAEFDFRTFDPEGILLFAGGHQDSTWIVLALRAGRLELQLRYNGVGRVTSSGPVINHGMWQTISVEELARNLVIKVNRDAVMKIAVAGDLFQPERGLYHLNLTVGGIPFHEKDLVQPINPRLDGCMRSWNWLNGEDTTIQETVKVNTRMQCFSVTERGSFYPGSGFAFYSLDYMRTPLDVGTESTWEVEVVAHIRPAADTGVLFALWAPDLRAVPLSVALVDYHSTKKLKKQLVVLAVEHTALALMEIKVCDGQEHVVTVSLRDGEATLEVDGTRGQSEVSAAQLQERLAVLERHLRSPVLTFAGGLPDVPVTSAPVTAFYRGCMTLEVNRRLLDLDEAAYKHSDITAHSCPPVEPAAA
In words: direct ELISA on immobilized rhGas6, anti-His6 detection. How it is done:
FIG. 7: Epitope mapping of PS003biv and specificity of PS003biv for PS. Recombinant human PS (rhPS), a recombinant form of the PS SHBG-like region alone (rSHBG)), recombinant human Gas6 (rhGas6), or BSA (60 μL at 10 μg/mL in TBS containing 5 mM CaCl₂) were immobilized onto ELISA wells, and the binding of PS003biv (0.5 nM in TBS-0.1% Tween-5 mM CaCl₂)) was analyzed using a peroxidase-conjugated polyclonal anti-His6 tag antibody. The results are expressed as the percentage of the Abs_{450 nm} obtained on rhPS. Three individual experiments were done in simplicate.
Epitope mapping of PS003biv and specificity of PS003biv for PS rhPS, a recombinant form of the PS SHBG-like region alone (rSHBG) (Saposnik et al. 2003), recombinant human Gas6 (rhGas6), or BSA (60 μL at 10 μg/mL in 50 mM Tris, 150 mM NaCl, pH 7.4 (TBS) containing 5 mM CaCl₂) were immobilized onto 96-well NUNC Maxisorp plates, for 16 h at 4° C. Wells were washed with 3×200 μL of washing buffer (TBS containing 5 mM CaCl₂ and 0.1% Tween-20) and wells were blocked for 1 h at room temperature with TBS containing 5 mM CaCl₂ and 5% BSA. Wells were washed with 3×200 μL of washing buffer and 0.5 nM PS003biv (in TBS containing 5 mM CaCl₂, 0.1% Tween-20 and 2% BSA, 50 μL/well) were incubated for 1 h at room temperature. […] The results are expressed as the percentage of the Abs_{450 nm} obtained on rhPS. […]

The target of test [4] is T1, recombinant human PS (rhPS). In words: ratio of ELISA-derived KD values, reference PS003. As for the experimental part: To further compare the ability of PS003 and PS003biv to bind to PS, the affinity of PS003 and PS003biv for rhPS was estimated as described (Beatty et al. J Immunol Methods 1987), by obtaining binding curves on rhPS immobilized at increasing concentrations (0.6, 1.25, 2.5 and 5 μg/mL in TBS containing 5 mM CaCl₂) in three individual experiments done in simplicate. For each nanobody, the dissociation constant (KD) was determined by using a formula based on the Law of Mass Action.

Test [5] deals with T3, recombinant murine PS (rmPS) (murine, UniProt Q08761 42-675).
T3 construct: also called recombinant murine protein S
T3 sequence (looked up): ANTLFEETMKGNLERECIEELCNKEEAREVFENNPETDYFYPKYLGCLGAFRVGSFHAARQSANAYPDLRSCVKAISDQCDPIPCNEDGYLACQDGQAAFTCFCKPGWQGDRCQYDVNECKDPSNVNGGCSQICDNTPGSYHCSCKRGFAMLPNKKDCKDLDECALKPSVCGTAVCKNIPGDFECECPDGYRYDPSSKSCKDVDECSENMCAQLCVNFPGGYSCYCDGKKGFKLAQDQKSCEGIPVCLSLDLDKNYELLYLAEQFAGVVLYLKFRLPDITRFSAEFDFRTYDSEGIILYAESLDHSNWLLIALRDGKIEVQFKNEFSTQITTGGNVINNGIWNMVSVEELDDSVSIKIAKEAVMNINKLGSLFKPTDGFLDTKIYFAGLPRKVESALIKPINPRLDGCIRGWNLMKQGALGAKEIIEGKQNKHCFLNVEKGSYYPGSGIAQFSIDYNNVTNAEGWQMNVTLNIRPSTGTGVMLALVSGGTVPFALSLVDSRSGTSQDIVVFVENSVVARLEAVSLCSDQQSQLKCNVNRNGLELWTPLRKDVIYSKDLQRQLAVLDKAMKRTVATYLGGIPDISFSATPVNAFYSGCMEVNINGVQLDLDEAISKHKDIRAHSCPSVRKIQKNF
In words: direct ELISA on immobilized rmPS (legend of FIG. 11). An excerpt: FIG. 11: Comparison of PS003biv and PS004biv binding to immobilized recombinant murine PS in direct ELISA. PS004biv is an in-house anti-human PS nanobody generated from a monovalent nanobody (PS004) identified after a selection on rhPS immobilized onto ELISA wells. PS004biv strongly binds to rhPS in direct ELISA but, in contrast to PS003biv, its epitope is localized within the N-terminal part of PS and not within the SHBG-like domain of PS (data not shown). The binding of PS003biv and PS004biv to immobilized rmPS was analyzed by ELISA.
As for rhPS, recombinant murine PS (rmPS) was expressed in HEK293 cells in the presence of 10 μg/mL vitamin K1, and purified by a two-step anion-exchange chromatography, as previously described (Fernandez et al. 2009). rmPS (60 μL at 10 μg/mL in TBS containing 5 mM CaCl₂) was immobilized onto 96-well NUNC Maxisorp plates, for 16 h at 4° C. Wells were washed with 3×200 μL of washing buffer (TBS containing 5 mM CaCl₂) and 0.1% Tween-20) and wells were blocked for 1 h at room temperature with TBS containing 5 mM CaCl₂ and 5% BSA. Wells were washed with 3×200 μL of washing buffer and increasing concentrations of PS003biv and PS004biv (0-50 nM in TBS containing 5 mM CaCl₂ and 1% BSA, 50 μL/well) were incubated for 1 h at room temperature. […]

The target in test [6] is T2, recombinant human Gas6 (rhGas6). Put plainly: direct ELISA on immobilized protein, anti-HA detection. As for the experimental part:
Vitamin K-dependent Gas6 is highly homologous to PS (47% overall homology) and, in contrast to other vitamin K-dependent proteins, also contains a SHBG-like domain. To further confirm the specificity of PS003 to PS, rhPS and rh Gas6 (60 μL, at 10 μg/mL in TBS containing 5 mM CaCl₂) were immobilized onto 96-well NUNC Maxisorp plates for 16 h at 4° C. Wells were washed with 3×200 μL of washing buffer (TBS containing 5 mM CaCl₂ and 0.1% Tween-20) and wells were blocked for 1 h at room temperature in TBS containing 5 mM CaCl₂ and 5% BSA. Wells were washed with 3×200 μL of washing buffer and increasing concentrations of PS003 (0-200 nM in TBS containing 5 mM CaCl₂ and 1% BSA, 50 μL/well) was incubated for 1 h at room temperature. Wells were washed with 3×200 μL of washing buffer, and a peroxidase-conjugated polyclonal anti-HA tag antibody (Abcam, 1 μg/mL in TBS containing 5 mM CaCl₂ and 1% BSA, 50 μL/well) was incubated for 1 h at room temperature. Wells were washed with 3×200 μL of washing buffer and 50 μL of TMB was added. Reactions were stopped by the addition of 50 μL of 2M H₂SO₄.

B1: PS003biv (VHH)
chain: QVQLQESGGGLVQAGGSLRLSCAASGRTFSSYAMGWVRQAPGKEREFVAAISYNGGRTNYADSVKGRFTISRDNAKNTGYLQMNSLKPEDTAVYYCAANPRMWGSVDFRSWGQGTQVTVSSGGGSGGGSGGGSGGGSQVQLQESGGGLVQAGGSLRLSCAASGRTFSSYAMGWVRQAPGKEREFVAAISYNGGRTNYADSVKGRFTISRDNAKNTGYLQMNSLKPEDTAVYYCAANPRMWGSVDFRSWGQGTQVTVSS
notes: also called bivalent PS003; not shown: N-terminal His6-tag from the pET28 format; C-terminal haemagglutinin (HA)-tag
The Kd is a measure of binding affinity in units of concentration. On to B1, for which, in test [1], the Kd came out at 13.8 nM. The “clotting times in APTT-based APC-cofactor activity plasma clotting assay (STACLOT PS); 6 nM rhPS, 2 µM nanobody” value in test [2] worked out at 3.6 fold. The figures for the binding result in test [3] and in test [5] were “no binding (tested: 0.5 nM)” and “binds”, respectively. Further, in test [4], the “fold higher affinity than PS003” value came out at 1.9 fold.

B2: PS003 (VHH)
VHH: QVQLQESGGGLVQAGGSLRLSCAASGRTFSSYAMGWVRQAPGKEREFVAAISYNGGRTNYADSVKGRFTISRDNAKNTGYLQMNSLKPEDTAVYYCAANPRMWGSVDFRSWGQGTQVTVSS
notes: Llama VHH selected by phage display on rhPS; Purified form expressed from pET28 in E. coli with N-terminal His6-tag and C-terminal HA-tag; also called PS003 nanobody; monovalent PS003; not shown: N-terminal His6-tag from the pET28 format; C-terminal haemagglutinin (HA)-tag
Consider B2, for which the Kd in test [1] came to 26.8 nM. Besides, the “clotting times in APTT-based APC-cofactor activity plasma clotting assay (STACLOT PS); 6 nM rhPS, 2 µM nanobody” value in test [2] is 2.8 fold. Also, in test [6], the binding result is listed as “no binding (tested: 20 nM)”.

The record behind these values is patent US20230265211A1 (published 2023).
